Biological target: gHgLgO249 complex of 131stop-gO249 virions (human cytomegalovirus, strain TB40/E)
Test: co-IP + pull-down; gB co-precipitated with gHgLgO from 131stop and 131stop-gO249 virion lysates using anti-gH antibody 14-4b or PDGFRα-Fc; WB, ImageJ; gO precipitation levels normalized and relative gB levels determined

“glycoprotein gB of HCMV virions (natural protein)” was tested, and the fold change of co-precipitated gB against gHgLgOWT was 4 fold.
